In PMC9815098 (Acta Crystallographica. Section D, Structural Biology, 2023):

Molecular target: the molecule itself
Test: SEC-MALS; RBP-CPN at 0.5, 1.0 and 5 mg ml^-1; Superdex 75 Increase 10/300 GL; 10 mM sodium phosphate pH 7.8, 50 mM sodium chloride, 0.02% sodium azide; room temperature; monomer to dimer

B1: RBP-CPN (permuted N-terminal lobe of the ribose-binding protein from Thermotoga maritima) (domain or fragment)
chain: MKGKMAIVISTLNNPWFVVLAETAKQRAEQLGYEATIFDSQNDTAKESAHFDAIIAAGYDAIIFNPTDADGSIANVKRAKEAGIPVFCVDRGINARGLAVAQIYSDTSTQFPKLMARLAVEWADQYLRGG
notes: residue printed between position 263 and the HHHHHH tag; source: E. coli BL21 (DE3), purified (IMAC, SEC)
stoichiometry N: 2
